Results reported in publication PMC8221081.

Molecular target: Gankyrin (Gank) (UniProt Q9Z2X2)
Assay: Gank IP, C/EBPα Western blot
Conditions: reference: wild-type mice, DEN-treated; sites S193

binding against the reference: lost
Substance: C/EBPα (from UniProt P53566) C/EBPα-S193A mice, DEN-treated
